Test results published in US20220213181A1 (Novartis, published 2022).
Substitutions are numbered along the chain they refer to. Blank lines part the entries; values can stand above or below the binder they belong to.

Experiments:
[1] = target: T1, Human ANGPTL4(26-406)-FLAG-His6-Avi (human, UniProt Q9BY76 24-406, biotin on the C-terminal Avi tag (BirA) where the protein is immobilised); experiment: SET (solution equilibrium titration), MSD detection, IgG
T1 construct: the text calls it 20 amino acids), then QP, ANGPTL4 26-406 and FLAG-His6-Avi; the signal peptide is left out here; also called full length human ANGPTL4; hANGPTL4
T1 sequence: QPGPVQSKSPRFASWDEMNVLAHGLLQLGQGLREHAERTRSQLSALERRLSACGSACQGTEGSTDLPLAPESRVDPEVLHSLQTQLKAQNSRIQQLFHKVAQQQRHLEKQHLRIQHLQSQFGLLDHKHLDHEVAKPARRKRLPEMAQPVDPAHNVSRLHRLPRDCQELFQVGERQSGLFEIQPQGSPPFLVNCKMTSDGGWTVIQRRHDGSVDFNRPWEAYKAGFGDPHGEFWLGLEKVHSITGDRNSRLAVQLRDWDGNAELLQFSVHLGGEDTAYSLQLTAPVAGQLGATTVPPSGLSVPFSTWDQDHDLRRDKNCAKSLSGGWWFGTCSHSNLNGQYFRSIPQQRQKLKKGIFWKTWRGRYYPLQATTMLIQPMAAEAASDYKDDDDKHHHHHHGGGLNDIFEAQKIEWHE
Method: (§1) SET assays were performed as follows. In a 96-well polypropylene plate, a constant concentration of ANGPTL4 antibody (10 pM) was mixed with different concentrations of non-biotinylated human, cyno, mouse, or rat full-length ANPGLT4 protein, or human ANGPTL4 N-terminal domain protein (5-fold serial dilution ranging from 0.01 pM to 100 nM) in SET buffer (PBS, pH 7.4 without CaCl₂) or MgCl₂, 0.5% w/v bovine serum albumin (fatty acid free) and 0.02% v/v Tween-20). The final reaction volume was 80 μL. The plate was sealed using an adhesive film and incubated at 22° C. for 14 hours with constant shaking (300 rpm). During the same period of time, a 384-well streptavidin-coated Meso Scale Discovery (MSD) plate was blocked by incubating the plate with 50 μL blocking buffer (PBS, pH 7.4, 5% w/v bovine serum albumin) per well at 4° C. The blocked MSD plate was washed 3 times with wash buffer (PBS, pH 7.4 and 0.05% v/v Tween-20) using a plate washer (BioTek). Biotinylated ANGPTL4 (full-length human, cyno, mouse, or rat ANGPTL4, or human ANGPTL4 N-terminal domain) protein (1 nM, 15 μL per well) was immobilized on the surface of the streptavidin-coated MSD plate by incubation at 22° C. for one hour with constant shaking (600 rpm). The plate was then washed 3 times as described earlier.
(§2) The equilibrium binding reactions (15 μL per well) were applied to the MSD plate with immobilized ANGPTL4 and incubated for 20 min at 22° C. The unbound material was removed by washing the plate 3 times with wash buffer, and the captured antibody was detected by adding 15 μL per well of a 1:500 dilution of Sulfo-tagged goat anti-human IgG (Meso Scale Discovery). The plate was then incubated for one hour with constant shaking (600 rpm). The plate was washed 3 times, and then 15 μL/well of 1× MSD read buffer T was added and the plate was developed using a Sector Imager 6000 (Meso Scale Discovery). The data were transferred to Microsoft Excel for analysis and plotted using GraphPad Prism v6. The KD values were determined by fitting the data to the following equation: […]
(§3) where Bₘₐₓ is the signal when no ANGPTL4 protein is present in solution, CAb is the constant concentration of ANGPTL4 antibody in solution, CAg is the concentration of ANGPTL4 in solution, and KD is the equilibrium dissociation constant.

[2] = target: T2, Cynomolgus monkey ANGPTL4(26-406)-FLAG-His6-Avi (cynomolgus monkey, biotin on the C-terminal Avi tag (BirA) where the protein is immobilised); experiment: as above
T2 construct: also called Cyno ANGPTL4 (26-406)
T2 chain: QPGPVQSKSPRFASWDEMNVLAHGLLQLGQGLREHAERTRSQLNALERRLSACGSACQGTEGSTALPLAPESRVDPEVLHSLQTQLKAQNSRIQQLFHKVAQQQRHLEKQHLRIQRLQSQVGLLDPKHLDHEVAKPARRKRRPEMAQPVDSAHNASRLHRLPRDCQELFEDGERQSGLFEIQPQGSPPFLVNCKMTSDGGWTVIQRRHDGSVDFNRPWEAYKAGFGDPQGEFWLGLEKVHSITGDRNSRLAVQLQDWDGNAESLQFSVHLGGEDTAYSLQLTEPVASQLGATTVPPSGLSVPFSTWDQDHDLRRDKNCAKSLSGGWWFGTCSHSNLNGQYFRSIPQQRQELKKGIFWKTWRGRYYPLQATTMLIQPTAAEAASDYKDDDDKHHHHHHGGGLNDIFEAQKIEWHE
Method: as §1, §2, §3

P4 = target: T3, P4 (human); experiment: linear peptide array on glass (JPT)
T3 construct: linear 15-mer from the N-terminal coiled coil domain of human ANGPTL4
T3 peptide: FASWDEMNVLAHGLL
Method: (§4) The ability of selected antibodies of invention, namely NEG276 and NEG318, to bind to linear 15-amino-acid peptides derived from the N-terminal coiled coil domain of human ANGPTL4 was tested. The peptides were immobilized on a glass surface, and the ability of NEG276 and NEG318 to bind to the immobilized peptides was evaluated using experimental methods optimized for linear peptide epitope mapping at JPT Peptide Technologies (Berlin, Germany).

P7 = target: T4, P7 (human); experiment: linear peptide array on glass (JPT)
T4 construct: linear 15-mer from the N-terminal coiled coil domain of human ANGPTL4
T4 peptide: LAHGLLQLGQGLREH
Method: as §4

P11 = target: T5, P11 (human); experiment: linear peptide array on glass (JPT)
T5 construct: linear 15-mer from the N-terminal coiled coil domain of human ANGPTL4
T5 peptide: REHAERTRSQLSALE
Method: as §4

P15 = target: T6, P15 (human); experiment: linear peptide array on glass (JPT)
T6 construct: linear 15-mer from the N-terminal coiled coil domain of human ANGPTL4; printed with Ser where ANGPTL4 has Cys
T6 peptide: ALERRLSASGSASQG
Method: as §4

P17 = target: T7, P17 (human); experiment: linear peptide array on glass (JPT)
T7 construct: linear 15-mer from the N-terminal coiled coil domain of human ANGPTL4; printed with Ser where ANGPTL4 has Cys
T7 peptide: SASGSASQGTEGSTD
Method: as §4

P21 = target: T8, P21 (human); experiment: linear peptide array on glass (JPT)
T8 construct: linear 15-mer from the N-terminal coiled coil domain of human ANGPTL4
T8 peptide: STDLPLAPESRVDPE
Method: as §4

P26 = target: T9, P26 (human); experiment: linear peptide array on glass (JPT)
T9 construct: linear 15-mer from the N-terminal coiled coil domain of human ANGPTL4
T9 peptide: VLHSLQTQLKAQNSR
Method: as §4

P30 = target: T10, P30 (human); experiment: linear peptide array on glass (JPT)
T10 construct: linear 15-mer from the N-terminal coiled coil domain of human ANGPTL4
T10 peptide: NSRIQQLFHKVAQQQ
Method: as §4

P34 = target: T11, P34 (human); experiment: linear peptide array on glass (JPT)
T11 construct: linear 15-mer from the N-terminal coiled coil domain of human ANGPTL4
T11 peptide: QQQRHLEKQHLRIQH
Method: as §4

P38 = target: T12, P38 (human); experiment: linear peptide array on glass (JPT)
T12 construct: linear 15-mer from the N-terminal coiled coil domain of human ANGPTL4
T12 peptide: IQHLQSQFGLLDHKH
Method: as §4

P43 = target: T13, P43 (human); experiment: linear peptide array on glass (JPT)
T13 construct: linear 15-mer from the N-terminal coiled coil domain of human ANGPTL4
T13 peptide: KHLDHEVAKPARRKR
Method: as §4

B1: NEG315 (antibody, human IgG1, kappa, V domains shown)
VH: QVQLVQSGAEVKKPGASVKVSCKASGYTFTNYWITWVRQAPGQGLEWMGDFYPGGGNTNYNAKLQGRVTLTVDTSTSTAYMELRSLRSDDTAVYYCARSPPQVAPFDYWGQGTLVTVSS
VL: DIQMTQSPSSLSASVGDRVTITCQASEYIYNWLGWYQQKPGKAPKLLISGASGLETGVPSRFSGSGSGKDYTFTISSLQPEDIATYYCQQYWSTPWTFGQGTKLEIKR
notes: humanized, hIgG1/kappa, parental antibody 37P1
Kd [1]: 12 pM | Kd [2]: 21 pM

B2: NEG318 (antibody, human IgG1, kappa, V domains shown)
VH: B1 VH with N31S, Y32F, F51I, G56A, N57T, A62E, A104G
VL: B1 VL with E27D, N31H, G34A, G53S, T94I
notes: humanized, hIgG1/kappa, parental antibody 14P18
binding result (P4): no binding | binding result (P7): no binding | binding result (P11): no binding | binding result (P15): no binding | binding result (P17): no binding | binding result (P21): no binding | binding result (P26): no binding | binding result (P30): no binding | binding result (P34): no binding | binding result (P38): no binding | binding result (P43): no binding | Kd [1]: 9 pM | Kd [2]: 17 pM

B3: NEG319 (antibody, human IgG1, kappa, V domains shown)
VH: B1 VH with N31S, Y32F, F51I, G56A, A62E, A104G
VL: B1 VL with Y30I, G34A, S52T, T94I
notes: as for B2
Kd [1]: 16 pM | Kd [2]: 8 pM

B5: NEG310 (antibody, human IgG1, kappa, V domains shown)
VH: QVQLVQSGAEVKKPGASVKVSCKASGYTFTSYTMHWVRQAPGQGLEWMGYINPSSGYTKYNQKFQGRVTMTADKSTSTAYMELSSLRSEDTAVYYCAEGWLLLAMDYWGQGTLVTVSS
VL: EAVVTQSPATLSLSPGERATLSCRSSTGAVTTSNYAIWVQEKPGQAPRGLIGGTNNRAPGIPARFSGSLSGDDATLTISSLQPEDFAVYFCALWYSDHWVFGQGTKVEIKR
notes: humanized, hIgG1/kappa, parental antibody 17B1
Kd [1]: 21 pM | Kd [2]: 22 pM

B6: NEG276 (antibody, human IgG1, kappa)
heavy: not shown
light: EIVMTQSPATLSVSPGERATLSCKASQDIGSNLNWLQQKPGQAPRRLIYAVSNRGPGIPARFSGSRSGSEYTLTISSLQSEDFAVYYCLQYASSPWTFGQGTKVEIKRTVAAPSVFIFPPSDEQLKSGTASVVCLLNNFYPREAKVQWKVDNALQSGNSQESVTEQDSKDSTYSLSSTLTLSKADYEKHKVYACEVTHQGLSSPVTKSFNRGEC
notes: humanized, hIgG1/kappa, parental antibody 19C16
binding result (P4): no binding | binding result (P7): no binding | binding result (P11): no binding | binding result (P15): no binding | binding result (P17): no binding | binding result (P21): no binding | binding result (P26): no binding | binding result (P30): no binding | binding result (P34): no binding | binding result (P38): no binding | binding result (P43): no binding | Kd [1]: 24 pM | Kd [2]: 14 pM

B8: NEG276-LALA (antibody, human IgG1, kappa, L234A L235A)
heavy: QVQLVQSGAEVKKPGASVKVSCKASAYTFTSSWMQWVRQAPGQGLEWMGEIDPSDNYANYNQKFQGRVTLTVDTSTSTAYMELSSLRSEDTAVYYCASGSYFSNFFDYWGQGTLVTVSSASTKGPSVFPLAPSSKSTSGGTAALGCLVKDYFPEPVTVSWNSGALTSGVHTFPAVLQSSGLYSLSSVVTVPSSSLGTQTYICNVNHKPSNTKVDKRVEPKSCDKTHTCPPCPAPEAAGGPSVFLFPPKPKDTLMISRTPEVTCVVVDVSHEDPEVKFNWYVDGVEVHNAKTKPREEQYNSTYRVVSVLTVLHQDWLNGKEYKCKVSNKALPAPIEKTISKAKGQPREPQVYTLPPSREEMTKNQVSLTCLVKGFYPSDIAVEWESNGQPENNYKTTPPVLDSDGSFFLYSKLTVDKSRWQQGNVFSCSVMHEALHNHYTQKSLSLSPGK
light: B6 light
Kd [1]: 8 pM | Kd [2]: 7 pM

Further binders by falling Kd [1], results first:

Kd [1]: 15 pM | Kd [2]: 20 pM
B7: NEG278 (antibody, human IgG1, kappa, V domains shown)
VH: QVQLVQSGAEVKKPGASVKVSCKASAYTFTSSWMQWVRQAPGQGLEWMGEIDPSDNYANYNQKFQGRVTLTVDTSTSTAYMELSSLRSEDTAVYYCASGSYFSNFFDYWGQGTLVTVSS
VL: EIVMTQSPATLSVSPGERATLSCKASQDIGSNLNWLQQKPGQAPRRLIYAASVREPGIPARFSGSRSGSEYTLTISSLQSEDFAVYYCLQYASSPWTFGQGTKVEIKR
notes: as for B6

Kd [1]: 9 pM | Kd [2]: 15 pM
B4: NEG313 (antibody, human IgG1, kappa, V domains shown)
VH: B1 VH with T30N, N57S
VL: B1 VL with E27D, N31H
notes: as for B1
